Test results: patent publication CN106699884A (ZONHON BIOPHARMA INST INC; GENSUN INST BIOMEDICINE CO LTD, dated 2017)

Target: T1, 人C-反应蛋白 (human C-reactive protein, extracted from human plasma, HyTest) (human, UniProt P02741 19-224)
T1 construct: mature; Native protein from plasma; In the Western blot it was run on both non-denaturing and SDS gels; also called CRP; 天然CRP
T1 sequence (looked up): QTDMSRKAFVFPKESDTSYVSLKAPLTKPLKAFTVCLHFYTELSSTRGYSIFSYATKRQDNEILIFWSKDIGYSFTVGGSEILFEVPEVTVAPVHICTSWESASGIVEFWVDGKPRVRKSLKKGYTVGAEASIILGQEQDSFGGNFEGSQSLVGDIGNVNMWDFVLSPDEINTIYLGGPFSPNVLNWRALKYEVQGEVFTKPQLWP
Assay: Western blot, HRP-labelled scFv on native CRP from non-denaturing and SDS-PAGE gels

B1: 单链抗体P20 (anti-human C-reactive protein scFv P20) (scFv)
scFv: EVMLVESGGGLVKPGGSLKLSCAASGFTFSSYAMSWVRQTPERRLEWVATISTSGSDRYYPDSVKWRFTISRDSAKNILYLQMSSLRSEDTAMYYCARRGWDYWGQGTSVTVSAGGGGSGGGGSGGGGSDVVMTQTPLSLPVSLGDQASISCRSSQSLVHSNGNTYLHWYLQKSGQSPKLLLYKVSNRFSGVSDRFSGSGSGTDFTLKISRVEAEDLGVYFCSQNTHVPPTFGGGTKLEIKR
notes: Recombinant scFv made in E. coli BL21(DE3) and purified on HisTrap HP; It was HRP-labelled (P20-HRP) in the Western blot and was the coating antibody on nitrocellulose in the colloidal gold card; also called P20-scFv-(HIS)6; P20-HRP
**Q.** Does B1 bind?
**A.** binds
